One test addresses CCL18 (Homo sapiens) (UniProt P55774). As to conditions: cited from earlier work.
The target of another test is CCL4 (Homo sapiens) (UniProt P13236). As to conditions: cited from earlier work.
The target of a further test is CCL3 (Homo sapiens) (UniProt P10147). As to conditions: cited from earlier work.
Test [1] concerns the target non-glycosylated Evasin-1 (Rhipicephalus sanguineus) (UniProt P0C8E7). The test can be described thus: crystal structure; complex of non-glycosylated Evasin-1 and ΔAla1-CCL3 (A10T), formed overnight at 4°C at a molar ratio of 1:2.5, captured on Ni-NTA; crystals in 24% PEG 3350, 0.2 M ammonium sulphate, 0.1 M HEPES pH 8.1; 1.9 Å.

One may read the Kd as the free concentration of one partner at which half of the binding sites on the other are occupied at equilibrium, for simple one-to-one binding. By stoichiometry N is commonly meant the number of molecules, sites or subunits per partner or assembly.

Evasin-1, sequence (P0C8E7 21-114): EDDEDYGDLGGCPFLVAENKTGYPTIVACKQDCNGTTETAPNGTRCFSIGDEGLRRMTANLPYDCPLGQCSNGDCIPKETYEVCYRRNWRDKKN
non-glycosylated Evasin-1 (Rhipicephalus sanguineus), sequence (P0C8E7 21-114): as above
CCL4 (Homo sapiens), sequence (P13236 24-92): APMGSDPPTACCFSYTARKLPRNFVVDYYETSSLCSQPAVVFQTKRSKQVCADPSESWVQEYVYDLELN
CCL18 (Homo sapiens), sequence (P55774 24-89): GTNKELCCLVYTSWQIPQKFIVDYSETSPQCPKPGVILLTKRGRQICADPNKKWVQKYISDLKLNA
CCL3 (Homo sapiens), sequence (P10147 24-92): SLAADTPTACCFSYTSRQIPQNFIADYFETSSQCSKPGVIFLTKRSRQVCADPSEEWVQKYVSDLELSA

In the case of Evasin-1 (from UniProt P0C8E7), the values for the Kd with CCL18 (Homo sapiens), with CCL4 (Homo sapiens) and with CCL3 (Homo sapiens) were 3.2 nM, 0.81 nM and 0.16 nM, respectively.
As for ΔAla1-CCL3 (A10T) (ligand), the stoichiometry N in test [1] came out at 1.

Source of the values: paper PMC2796168.
